According to patent publication US20250002588A1:

Target: ALK-1/BMPR-2 receptor pair of the PathHunter U2Os dimerization cells (DiscoverX 93-0962C3) (UniProt P37023)
Assay: cell-based or functional assay

Sequence of ALK-1/BMPR-2 receptor pair of the PathHunter U2Os dimerization cells (DiscoverX 93-0962C3) (P37023 22-503, chain 1 of 2): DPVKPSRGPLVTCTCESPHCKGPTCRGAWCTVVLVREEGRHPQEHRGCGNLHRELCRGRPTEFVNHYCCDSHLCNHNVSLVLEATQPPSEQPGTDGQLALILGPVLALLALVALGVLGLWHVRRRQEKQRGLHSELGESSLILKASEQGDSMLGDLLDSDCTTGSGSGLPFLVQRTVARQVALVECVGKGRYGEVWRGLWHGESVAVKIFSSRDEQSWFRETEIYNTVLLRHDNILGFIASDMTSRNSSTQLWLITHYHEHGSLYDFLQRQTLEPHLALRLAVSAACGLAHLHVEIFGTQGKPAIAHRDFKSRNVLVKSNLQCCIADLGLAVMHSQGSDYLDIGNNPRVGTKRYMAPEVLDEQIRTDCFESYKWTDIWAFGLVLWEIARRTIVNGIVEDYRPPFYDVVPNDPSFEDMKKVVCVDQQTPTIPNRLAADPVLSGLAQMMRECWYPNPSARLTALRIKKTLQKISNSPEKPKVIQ
Sequence of ALK-1/BMPR-2 receptor pair of the PathHunter U2Os dimerization cells (DiscoverX 93-0962C3) (Q13873 27-1038, chain 2 of 2, further chain): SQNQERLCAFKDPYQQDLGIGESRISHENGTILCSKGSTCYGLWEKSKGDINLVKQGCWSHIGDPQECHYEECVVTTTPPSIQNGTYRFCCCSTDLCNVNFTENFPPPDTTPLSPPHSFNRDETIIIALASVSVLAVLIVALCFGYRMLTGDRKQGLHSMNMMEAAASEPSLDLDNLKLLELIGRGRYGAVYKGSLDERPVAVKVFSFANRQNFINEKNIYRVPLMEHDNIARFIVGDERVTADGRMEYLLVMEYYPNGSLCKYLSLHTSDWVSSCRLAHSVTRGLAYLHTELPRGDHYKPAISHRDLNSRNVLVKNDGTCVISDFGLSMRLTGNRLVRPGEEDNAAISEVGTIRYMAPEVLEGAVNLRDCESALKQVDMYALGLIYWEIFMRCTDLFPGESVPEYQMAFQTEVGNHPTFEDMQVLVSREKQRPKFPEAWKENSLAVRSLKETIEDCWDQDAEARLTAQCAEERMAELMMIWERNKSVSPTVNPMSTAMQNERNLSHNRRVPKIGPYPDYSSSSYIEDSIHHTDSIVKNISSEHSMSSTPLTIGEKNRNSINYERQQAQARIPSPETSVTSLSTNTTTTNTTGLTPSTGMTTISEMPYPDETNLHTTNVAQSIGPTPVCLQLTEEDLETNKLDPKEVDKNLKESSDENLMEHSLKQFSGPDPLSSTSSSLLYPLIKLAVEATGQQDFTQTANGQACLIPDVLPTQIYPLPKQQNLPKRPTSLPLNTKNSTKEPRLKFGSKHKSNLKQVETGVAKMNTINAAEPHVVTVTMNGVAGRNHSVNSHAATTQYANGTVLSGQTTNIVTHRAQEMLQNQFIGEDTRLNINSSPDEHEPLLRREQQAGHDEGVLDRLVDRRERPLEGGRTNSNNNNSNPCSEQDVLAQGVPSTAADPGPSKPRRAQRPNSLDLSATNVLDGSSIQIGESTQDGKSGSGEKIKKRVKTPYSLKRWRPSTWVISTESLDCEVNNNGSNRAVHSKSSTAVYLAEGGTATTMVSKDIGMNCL

Row | % Emax BMP9 | EC50 | EMAX (RLU) | Binder
1 | 97% | 0.1 nM | 2.57e+06 RLU | BMP10 (ligand, UniProt O95393 317-424, looked up) NAKGNYCKRTPLYIDFKEIGWDSWIIAPPGYEAYECRGVCNYPLAEHLTPTKHAIIQALVHLKNSQKASKACCVPTKLEPISILYLDKGVVTYKFKYEGMAVSECGCR
2 | 100% | 0.02 nM | 2.64e+06 RLU | BMP9 (ligand, UniProt Q9UK05 320-429, looked up) SAGAGSHCQKTSLRVNFEDIGWDSWIIAPKEYEAYECKGGCFFPLADDVTPTKHAIVQTLVHLKFPTKVGKACCVPTKLSPISVLYKDDMGVPTLKYHYEGMSVAECGCR
